Test results taken from patent publication CN113583116A (YANG SHENG TANG CO LTD; UNIV XIAMEN, dated 2021).

Legend:
[1] = biological target: T1, SARS-CoV-1的RBD重组蛋白 SARS-CoV1-RBD (SARS-CoV-1, UniProt P59594 306-527); assay: indirect ELISA, RBD coated at 2 μg/mL, antibody at 10, 1, 0.1 and 0.01 μg/mL
[2] = biological target: T1, SARS-CoV-1的RBD重组蛋白 SARS-CoV1-RBD

| Binder | binding result [1] | Kd [2] |
| --- | --- | --- |
| 小鼠单克隆抗体36H6 (antibody, V domains shown) VH: EVQLQQSGPELVNPGASVKISCKTSGYTFTEYTMHWVKQSHGKSLEWIGGINPNNGDTIYNQKFKGKATLTVDKSSSTAYMELRSLTSEDSAVFYCAREGDYYVSSYGYWGQGTTLTVSS VL: not shown | no binding (tested: 10μg/mL) |  |
| 小鼠单克隆抗体2B4 (antibody, V domains shown) VH: QVQLQQPGAELVRPGASVKLSCKASGYTFTSYWMNWVKQRPEQGLEWIGRIDPYDSETHYNQKFKDKAILTVDKSSTTAYMQLSSLTSEDSAVYYCARWGTVEWFFDYWGQGTTLTVSQ VL: not shown |  | 34.1 nM |
